Assay results reported in US20150024402A1.

Experiments:
[1] = target: Human Serum Albumin (HSA) (human) (UniProt P02768); assay: LSPR absorbance shift of HSA-conjugated gold nanorods; carboxyl groups blocked with ovalbumin at 200 ug/mL, 60 min incubation
[2] = target: Human Serum Albumin (HSA) (human) (UniProt P02768); assay: LSPR absorbance shift of HSA-conjugated gold nanorods; 37.5 ug/mL HSA (partial coverage), BSA block, 60 min incubation
[3] = target: Human Serum Albumin (HSA) (human) (UniProt P02768); assay: LSPR absorbance shift of HSA-conjugated gold nanorods in suspension, dose response at equilibrium; 600 ug/mL HSA (full coverage), BSA block, 30 min incubation; filing says the value deviates through ligand depletion
[4] = target: Human Serum Albumin (HSA) (human) (UniProt P02768); assay: LSPR absorbance shift of HSA-conjugated gold nanorods; carboxyl groups blocked with mPEG-NH2 at 16700 ug/mL, 60 min incubation
[5] = target: Human Serum Albumin (HSA) (human) (UniProt P02768); assay: LSPR absorbance shift of HSA-conjugated gold nanorods; 18.75 ug/mL HSA (partial coverage), BSA block, 60 min incubation
[6] = target: Human Serum Albumin (HSA) (human) (UniProt P02768); assay: LSPR absorbance shift of HSA-conjugated gold nanorods in suspension, dose response at equilibrium; 18.75 ug/mL HSA (partial coverage), BSA block, 30 min incubation
[7] = target: Human Serum Albumin (HSA) (human) (UniProt P02768); assay: LSPR absorbance shift of HSA-conjugated gold nanorods; carboxyl groups blocked with BSA at 200 ug/mL, 60 min incubation
[8] = target: Human Serum Albumin (HSA) (human) (UniProt P02768); assay: LSPR absorbance shift of HSA-conjugated gold nanorods; 600 ug/mL HSA (full coverage), BSA block, 60 min incubation; filing says the value deviates through ligand depletion

Sequence of UniProt P02768 (P02768 25-609 limits assumed): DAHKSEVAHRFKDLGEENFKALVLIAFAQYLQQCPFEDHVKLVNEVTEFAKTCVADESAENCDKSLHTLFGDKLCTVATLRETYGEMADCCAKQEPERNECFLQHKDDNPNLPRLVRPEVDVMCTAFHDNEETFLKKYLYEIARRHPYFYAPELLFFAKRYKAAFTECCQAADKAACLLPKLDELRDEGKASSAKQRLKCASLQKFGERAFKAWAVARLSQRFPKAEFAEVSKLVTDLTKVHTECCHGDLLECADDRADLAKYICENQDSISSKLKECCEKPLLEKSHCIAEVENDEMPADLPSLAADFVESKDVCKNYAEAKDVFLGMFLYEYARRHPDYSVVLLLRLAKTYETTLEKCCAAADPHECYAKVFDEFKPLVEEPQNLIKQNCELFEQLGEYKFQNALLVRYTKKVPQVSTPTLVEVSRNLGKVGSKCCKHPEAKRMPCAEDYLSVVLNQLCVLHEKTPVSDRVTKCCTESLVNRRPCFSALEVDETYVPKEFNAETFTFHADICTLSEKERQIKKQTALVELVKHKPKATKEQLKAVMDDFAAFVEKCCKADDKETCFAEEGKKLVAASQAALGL

Kd [1]: 5.22 nM | Kd [2]: 5.5 nM | Kd [3]: 99.4 nM | Kd [4]: 2.5 nM | Kd [5]: 3.8 nM | Kd [6]: 6.41 nM | Kd [7]: 8.44 nM | Kd [8]: 252 nM
Substance: Anti-Human Serum Albumin monoclonal antibody (ab18081, available from Abcam)
